# Results taken from publication PMC3923779, “Iron Acquisition in Bacillus cereus: The Roles of IlsA and Bacillibactin in Exogenous Ferritin Iron Mobilization” (PLoS Pathogens, 2014).
# B1: IlsA (Iron-regulated leucine rich surface protein type A), recombinant, without signal peptide (natural protein, Bacillus cereus strain ATCC14579, UniProt Q81G77 29-760, looked up)
# chain: ALKVEANQSVAAASDRTYDTEIKIYKDQKDEPSMVSQYIKDPKVTIAAGKKIVTVTMQDSDYFQYLRIEDKNQPGVFHDVKVLSEDKRKNGTKVVQFEIGEFEKKHNMQMHILIPAIGYDHKYQVQFEIKDPTVGNKETEKPDDNSNSGNTETDNPVDNQNMITDNKLRELVNKKVFNRKDLNTPITKEDLLQVKDLFLNTNEILDYSALKYMPNLKSLTVANAKIKDPSFFANLKQLNHLALRGNEFADVTPLVKMDNLESLDLSNNKITNVAPLTEMKNVKSLFLSGNQIEDVTALAKMEQLDYLNLANNKITNVAPLSNLKNVTYLTLAGNQIEDIKPLYTLPLKDLVLTRNKVKDLSGIDQLNQLQELWIGKNEITDVTPLSKMTQLKILNLPNNELKDITPLSSLVNLQKLDLEANYISDLSPVSNLKKLVFLSFVANEIRDVRPVIELSKTAYINVQNQKVFLEETEVNKEVKVPIYEKDGEISTKIRLKSDNGTYSNGVVKWSTPGEKVYEFGVKDPFADTGIFFTGSVIQNVVESKDGNTSKEDEKTEVVEFKDVPKGHWSEEAINYLAKEKLFIGYGNGEFGFGDNITRGQVALLIQRYLKLENNLEQKTAFTDTKGNMYETAIDAVVQAGIMTGYGNGMFRPDGVLTRYEMSVVLQRVFQLKENENSAENFKDVPNGHWAKGYVKALVDNKISKGDGEGNFLGDNFVTREQYAQFLYNAIKK
# notes: IlsA of Bacillus cereus strain ATCC14579, NCBI gene number Bc1331; Holo form (hemin added until saturation of 80%) in the ITC; also called Holo-IlsA; full-length IlsA; source: E. coli C600 ΔhemA, purified (Bulk GST Purification Module, eluted with PreScission Protease); produced in apo-form, hemin added to reconstitute the holo-protein
# B2: recombinant mouse H-chain ferritin (natural protein, UniProt P09528 1-182, looked up)
# chain: MTTASPSQVRQNYHQDAEAAINRQINLELYASYVYLSMSCYFDRDDVALKNFAKYFLHQSHEEREHAEKLMKLQNQRGGRIFLQDIKKPDRDDWESGLNAMECALHLEKSVNQSLLELHKLATDKNDPHLCDFIETYYLSEQVKSIKELGDHVTNLRKMGAPEAGMAEYLFDKHTLGHGDES
# notes: mouse ferritin H-chain, recombinant homopolymer; also called MoHF; recombinant mouse homopolymer H-chain; copies: 24
# Assays:
# Test in all cases: ITC; 16 injections of 3 µl of 229 µM holo-IlsA into the cell with 1 µM ferritin; 25°C; 50 mM Tris-HCl pH 7, 150 mM NaCl, 1 mM EDTA, 1 mM DTT; model of one set of independent binding sites; apparent values
# Conditions in all cases: both partners purified
# [1] = target: T1, recombinant human H-chain ferritin (human, UniProt P02794 1-183)
# T1 construct: human ferritin H-chain, recombinant homopolymer of 24 H-subunits; loaded with 500 Fe/shell in the iron release assay; also called HuHF; holoHuHF; copies: 24
# T1 sequence (P02794 whole entry): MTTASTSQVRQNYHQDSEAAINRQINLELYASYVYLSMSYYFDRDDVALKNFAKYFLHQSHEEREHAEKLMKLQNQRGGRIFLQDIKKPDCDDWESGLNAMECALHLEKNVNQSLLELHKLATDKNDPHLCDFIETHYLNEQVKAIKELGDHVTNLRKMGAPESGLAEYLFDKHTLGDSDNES
# [2] = target: T2, recombinant human L-chain ferritin (human, UniProt P02792 1-175)
# T2 construct: human ferritin L-chain, recombinant homopolymer of 24 L-subunits; also called HuLF; recombinant human homopolymer L-chain; copies: 24
# T2 sequence (P02792 whole entry): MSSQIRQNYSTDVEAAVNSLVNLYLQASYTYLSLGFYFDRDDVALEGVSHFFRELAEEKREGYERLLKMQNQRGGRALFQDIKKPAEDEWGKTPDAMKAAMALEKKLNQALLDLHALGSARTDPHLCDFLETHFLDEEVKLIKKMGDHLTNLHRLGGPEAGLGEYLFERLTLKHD
# [3] = target: T3, recombinant human heteropolymer H/L ferritin (human, UniProt P02794 1-183; P02792 1-175)
# T3 construct: human ferritin H-chain in the recombinant heteropolymer; human ferritin L-chain in the recombinant heteropolymer; The results print ∼20 H-chains and 4 L-chains; also called HuH/LF; recombinant heteropolymer ferritin; copies: 20 + 4
# T3 sequence (P02794 whole entry, chain 1 of 2): as the sequence (P02794 whole entry) above
# T3 sequence (P02792 whole entry, chain 2 of 2): as the sequence (P02792 whole entry) above
# [4] = target: B2
# [5] = target: B1
Binder,dH [1] [kcal/mol],stoichiometry N [1] [IlsA per ferritin shell],dH [2] [kcal/mol],stoichiometry N [2] [IlsA per ferritin shell],dH [3] [kcal/mol],stoichiometry N [3] [IlsA per ferritin shell],dH [4] [kcal/mol],stoichiometry N [4] [IlsA per ferritin shell],Ka [5] [M⁻¹]
B1,-0.982,25.2,-2.08,23.9,-2.08,23.8,-0.801,24.9,–
B2,–,–,–,–,–,–,–,–,2.07e+06
